The labels stand for the following.
B1: KRT13 (parent)
chain: KTIEELRDKILTATIENNRVILEI
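Note: lentivirally expressed fusions sorted by FACS into six bins by GFP to DsRed ratio, PSI derived from sequencing read proportions per bin multiplied by bin number.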

In the data set the parent is B1. In words: protein stability index of a GFP-peptide fusion (GPS, HEK-293T) (PSI 1-6); higher = more stable. Conditions: c terminus: a fixed tail appended.
Take KTIEELRDKILNATIENNRVILEI [T12N]: the protein stability index is 2.83. Turning to KTIEELRDKILQATIENNRVILEI [T12Q], the protein stability index came out at 2.65.

For the variant KTIEEVRDKILTATIENNRVILEI [L6V], the protein stability index turned out to be 2.23. The figure for KTIEETRDKILTATIENNRVILEI [L6T] is 2.46; for KTIEEMRDKILTATIENNRVILEI [L6M] it is 1.98; for KTIEEKRDKILTATIENNRVILEI [L6K] it is 2.32. With KTIEEIRDKILTATIENNRVILEI [L6I], the protein stability index was found to be 2.5. The figure for KTIEELRDKGLTATIENNRVILEI [I10G] is 1.69; for KTIEELRDKTLTATIENNRVILEI [I10T] it is 1.43. In the case of KTIEELRDKRLTATIENNRVILEI [I10R] it was 2.31. In the case of KTIEELRDKQLTATIENNRVILEI [I10Q] it was 1.54. Regarding KTIEELRDKFLTATIENNRVILEI [I10F], the protein stability index is 3.07. In the case of KTIEELRDKSLTATIENNRVILEI [I10S] it was 2.2; in that of KTIEELRDKALTATIENNRVILEI [I10A], 2.17; in that of KTIEYLRDKILTATIENNRVILEI [E5Y], 4.43. In the case of KTIEELRDKILTAVIENNRVILEI [T14V] it was 1.02; in that of KTIEELRDKILTAHIENNRVILEI [T14H], 2.53.

Consider KTIEELRDKILTANIENNRVILEI [T14N], for which the protein stability index was found to be 3.03.

Turning to KTIEELRDKILTAMIENNRVILEI [T14M], the protein stability index was found to be 2.52. In the case of KTIEELDDKILTATIENNRVILEI [R7D] it was 2.25; in that of KTIEELNDKILTATIENNRVILEI [R7N], 2.38; in that of KTIEELRSKILTATIENNRVILEI [D8S], 2.79. In the case of KTIEELRKKILTATIENNRVILEI [D8K] it was 2.66; in that of KTIEELRFKILTATIENNRVILEI [D8F], 2.81; in that of KTIEELRMKILTATIENNRVILEI [D8M], 3.19.

In the case of KTIEELRDKILTATIENNRVILII [E23I], the protein stability index was found to be 2.71. For the variant KTIEELRDKILTATIENNRVILWI [E23W], the protein stability index turned out to be 2.9. The figure for KTIEELRDKILTATIENNRVILLI [E23L] is 2.42. Consider KTIEELRDKILTATIENNRVILTI [E23T], for which the protein stability index was determined as 2.79. With KTIEELRDKILTATIENNRVILAI [E23A], the protein stability index worked out at 1.85. Regarding KTIEELRDKILTATIENNRVILDI [E23D], the protein stability index came to 2.45. In the case of KTIEELRDKILTATIENNRVILMI [E23M] it was 3.54; in that of KTIEELRDKILTATIENNRHILEI [V20H], 1.6. The figure for KTIEELRDKILTATIENNRKILEI [V20K] is 2.1; for KTIEELRDKILTATIENNRAILEI [V20A] it is 1.82; for KTIEELRDKILTATQENNRVILEI [I15Q] it is 2.07. The figure for KTIEELRDKILTATEENNRVILEI [I15E] is 1.69; for KTIRELRDKILTATIENNRVILEI [E4R] it is 3.26; for KTIDELRDKILTATIENNRVILEI [E4D] it is 3.39. For the variant KTIFELRDKILTATIENNRVILEI [E4F], the protein stability index was found to be 3.99.

For KTISELRDKILTATIENNRVILEI [E4S], the protein stability index stood at 3.44.

KTIEELRDKILTPTIENNRVILEI [A13P]: the protein stability index was 1.87. In the case of KTIEELRDKILTLTIENNRVILEI [A13L] it was 2.61; in that of KTCEELRDKILTATIENNRVILEI [I3C], 3.18. The figure for KTAEELRDKILTATIENNRVILEI [I3A] is 1.24; for KTIEELRDKILTATIEKNRVILEI [N17K] it is 2.4. The figure for KTIEELRDKILTATIEPNRVILEI [N17P] is 3.1. As to KTIEELRDKILTATIEVNRVILEI [N17V], the protein stability index was 1.59.

Turning to KTIEELRDKILTATIEQNRVILEI [N17Q], the protein stability index amounted to 3.06. Regarding KTIEELRDKILTATIEENRVILEI [N17E], the protein stability index is 2.73.

Regarding KTIEELRDKILTATIETNRVILEI [N17T], the protein stability index amounted to 3.19. The figure for KTIEELRDKILTATIECNRVILEI [N17C] is 3.65.

For KTIEELRDKILTATIENNMVILEI [R19M], the protein stability index was 2.14. The figure for KTIEELRDKILTATIENNVVILEI [R19V] is 2.64. In the case of KTIEELRDKILTATIENNSVILEI [R19S] it was 2.23; in that of KTIEELRDKILTATIENNQVILEI [R19Q], 2.64; in that of KTIEELRDKILTATIFNNRVILEI [E16F], 3.08.

Consider KTIEELRDKILTATISNNRVILEI [E16S], for which the protein stability index is 2.3. With KTIEELRDKILTATIHNNRVILEI [E16H], the protein stability index came to 2.52. In the case of KTIEELRDKILTATIMNNRVILEI [E16M] it was 2.72. As to KTIEELRDGILTATIENNRVILEI [K9G], the protein stability index came to 2.21. For the variant KTIEELRDFILTATIENNRVILEI [K9F], the protein stability index stood at 2.7. In the case of FTIEELRDKILTATIENNRVILEI [K1F] it was 3.36.

With WTIEELRDKILTATIENNRVILEI [K1W], the protein stability index was determined as 3.79. In the case of DTIEELRDKILTATIENNRVILEI [K1D], the protein stability index was 2.31. Turning to PTIEELRDKILTATIENNRVILEI [K1P], the protein stability index stood at 1.24. HTIEELRDKILTATIENNRVILEI [K1H]: the protein stability index is 2.09. The figure for ATIEELRDKILTATIENNRVILEI [K1A] is 3.63. The figure for YTIEELRDKILTATIENNRVILEI [K1Y] is 2.36.

On to KTIEELRDKILTATIENYRVILEI [N18Y], for which the protein stability index worked out at 2.01. In the case of KTIEELRDKILTATIENERVILEI [N18E] it was 3.06.

With KTIEELRDKILTATIENSRVILEI [N18S], the protein stability index amounted to 2.99. In the case of KTIEELRDKILTATIENKRVILEI [N18K] it was 3.44; in that of KTIEELRDKIATATIENNRVILEI [L11A], 1.3; in that of KTIEELRDKINTATIENNRVILEI [L11N], 2.85. KTIEELRDKIQTATIENNRVILEI [L11Q]: the protein stability index is 2.72. The figure for KTIEELRDKIRTATIENNRVILEI [L11R] is 1.39; for KTIEELRDKIKTATIENNRVILEI [L11K] it is 1.59.

Turning to KTIEELRDKILTATIENNRVILES [I24S], the protein stability index was found to be 1.92. In the case of KTIEELRDKILTATIENNRVILEG [I24G] it was 2.63.

As for KTIEELRDKILTATIENNRVILEE [I24E], the protein stability index turned out to be 2.65. In the case of KTIEELRDKILTATIENNRVILEH [I24H], the protein stability index was 1.93. Turning to KTIEELRDKILTATIENNRVILEK [I24K], the protein stability index turned out to be 3.08. The figure for KTIEELRDKILTATIENNRVILEA [I24A] is 2.65; for KTIEELRDKILTATIENNRVGLEI [I21G] it is 1.62. In the case of KTIEELRDKILTATIENNRVMLEI [I21M] it was 2.18.

For KTIEELRDKILTATIENNRVNLEI [I21N], the protein stability index came out at 1.64. As for KTIEELRDKILTATIENNRVRLEI [I21R], the protein stability index amounted to 2.49. Regarding KTIEELRDKILTATIENNRVFLEI [I21F], the protein stability index is 3.3. The figure for KTIEELRDKILTATIENNRVTLEI [I21T] is 1.47; for KTIEELRDKILTATIENNRVIGEI [L22G] it is 1.8; for KTIEELRDKILTATIENNRVIEEI [L22E] it is 3.14. In the case of KTIEELRDKILTATIENNRVITEI [L22T] it was 1.93; in that of KTIEELRDKILTATIENNRVISEI [L22S], 2.1.

Source of the values: the supplement of paper PMC10567573.
